# Laboratory results: publication PMC7888707
# Columns and labels:
# [1] = target: PECAM-1–GFP (wild type, stably expressed in HL-60 cells) (human) (UniProt P16284); test: FRET or BRET; FLIM measurement of FRET between the GFP and RFP tags in dHL-60 cells perfused (1.5 dynes/cm2) over TNF-activated HUVEC monolayers, fixed in 4% PFA in mid-TEM; read at breached junctions
# [2] = target: PECAM-1–GFP (wild type, stably expressed in HL-60 cells) (human) (UniProt P16284); test: FRET or BRET; FLIM measurement of FRET between the GFP and RFP tags in dHL-60 cells perfused (1.5 dynes/cm2) over IL-1β-activated HUVEC monolayers, fixed in 4% PFA in mid-TEM; read at breached junctions
# [3] = target: PECAM-1–GFP (wild type, stably expressed in HL-60 cells) (human) (UniProt P16284); test: FRET or BRET; FLIM measurement of FRET between the GFP and RFP tags in HL-60 cells plated on poly-L-lysine-coated coverslips at 37°C for 5 min, fixed in 4% PFA (resting, not in TEM)
substance,measurement,setting,value
"L-selectin–RFP (wild type, stably expressed in HL-60 cells) (from UniProt P14151 39-372) (natural protein)",FRET efficiency,[1],5.39%
same,FRET efficiency,[2],1.21%
same,FRET efficiency,[3],0.982%
